According to the nanobody polyreactivity screen of Harvey et al. (2022):

Test: yeast display, Sf9 membrane polyspecificity reagent, FACS + sequencing; frameworks hold sequencing errors
How it was run: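 Nanobodies came from a synthetic yeast display library in Saccharomyces cerevisiae BJ5465, induced with galactose for 36–48 hours and stained for 1 hour at 4 °C with 10% biotinylated, detergent-solubilized Sf9 membrane reagent. Cells were enriched on streptavidin microbeads and then FACS-sorted, with low and high (top ~1%) gates set on anti-HA fluorescence for expression and streptavidin fluorescence for reagent binding. Each polyreactivity label reflects the gate a clone came from. Genes were amplified by colony PCR, sequenced by MiSeq 2 × 250 and filtered by CDR length.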

Row | Sequence | polyreactivity (PSR sort gate)
1 | QVQLVESGGGLVQAGGSLRLSCAASGSTFGVNAMGWYRQAPGKERELVASIRKRGGTTYYADSVKGRFTISRDNAKNTVYLQMNSLKPEDTAVYYCAAQYGDEVDYWGQGTQVTVSS | high polyreactivity
2 | QVQLVESGGGLVQAGGSLRLSSAASGSIFLKNAMGRSRQAPGKERELVARISFSGGSTYYADSVKGRFTISRDNAQNTVYLQMNSLKPEDTAVYYCAKTVLRTESGWWIKFDYWGQGTQVTVSS | low polyreactivity
3 | QVQLVESGGGLVQAGGSLRLSCAASGNTFRFYTMGWYRQAPGKERELVAAINSSGRTNYADSVKGRFTISRDNAKNTVYLQMNSLIPEDTAVYYCAADQQRSIDAPYGYWGQGTQVTVSS | low polyreactivity
4 | QVQLVESGGGLVQAGGSLRLSCAASGFILYSYAMGWSRQAPGKEREFVSVISRGGGRTYYADSVKGRFTISRDNAKNTVYLQMNSLKPEDTAVYYCAAGSRSPHWYTRELDYWGQGTQVTVSS | low polyreactivity
5 | QVQLVESGGGLVQAGGSLRLSCAASGRIFYVYTMGWYRQAPGKERELVAAISWSGGSTHYADSVKGRFTISRDNAKNTVYLQMNSLKPEDTAGYYCNKGVVSRVAFEYWGQGTQLTVSS | low polyreactivity
6 | QVQLVESGGGLVQAGVSLRLSCPASGRTFGWYAMGWYRQAPGTERELVAAITSGTSTYYADSVKGRFTISRDNAKNTVYLQMNSLKPEDTAVYYCAVDRGISVGYTRFDYWGQGTQVSVSS | low polyreactivity
7 | QLQLVESGGGLVQAGGSLRLSCAASGLILYSYAMGRYRQAPGKERELVADISSGGITNYADSVKGRFTISRDNAKNTVYLQMNSLKPADTAVNYCAADTRPVNYILYEYWGQGTQVTVSS | low polyreactivity
8 | QVQLVESGGGLVQAGGSLRLSCAASGFIFDAYAMGWYRQAPGKERELVAAITRGNTYYADSVKGRFTISRDNAKNTVYLQMNSLKPEDTALYYCNADYNYANYPHDYWGQVTQVTVSS | low polyreactivity
9 | QVQLVESGGGLVQAGGSLRLSCAASVRTFKWYAMGWYRQAPGKERELVAGISRGAGRTYYADSVKWRFTMSRDNAKNTVYLQMNSLKPEDTAVYYCAAVPSYHSTSPFYYWGQGTQVTVSS | high polyreactivity
10 | QVQLVESGGGLVQAGGSLRLSCAASGRTFSYYAMGWYIQAPGKERELVAAITWSGASTYYADSVKGRFTISRDNAKNTVYLQMNSLKPEDTAVYYCNAGWDSGIVQSDETVYKYDYWGQGTQVTVSS | low polyreactivity
11 | QVQLVESGGGLVQAGGSLRLSCAASGIIFPYYSMGWYRQAPGKERELVAAITSSGGSTYYADSVKGRFTISRDNAKNTVYLQMNSLKPEDTAVYYCAAQTWGHGGDSWGQGTQVTVSS | high polyreactivity
12 | QVQLVESGGGLVQAGGSLRLSCAASGSIFARYAMGWYRQAPGKERELDAAISGRGGSTYYADSVKGRFTISRDNAKNTVYLQMNSLKPEDTAVYYCNAVGHTSIRRALDILDYWGQGTQVTVSS | high polyreactivity
13 | QVQLVESGGGLVQAGGSLRLSCDASGSIFEYYAMGWYRPAPGKERELVAAISSGGPTYYADSVKGRFTISRDNAKNTVYLQMNSLKPEDTAVYYCNADLWYPDYDYWGQGTQVTVSS | low polyreactivity
14 | QVQLVESGAGLVHAGGSLRLSCAASGSIFEGYAMGWYRQAPGKERELVARITSDDDSTYYADSVKGRFTNSRDTAKNTVYLQMYSLKPEDTAVFYCNADYYWTTLAMDSWGQGTQVTVSS | low polyreactivity
15 | QVQLVESGGGLVQAVVSLRLSCAASGSIFGGYAMGWYRQAPGKERELVAAISYRGASTYYADSVKGRFTISRDNAKNTVYLQMNSLKPEDTAVYYCAVAARTRARVLYGYDYWGQGTQVTVSS | low polyreactivity
16 | QVQLVESGGGLVQAGGSLRLSCAASGRIFTFYAMGWYRQAPGKARELVASITGGGNTYYADSVKGRFTISRDNAKNTVYLQMNSLKPEDTAVYYCAAGFSYFTSVLSLDRYYYWGQGTQVTVSS | low polyreactivity
17 | QVQLVESGVGLVQAGGSLRISCAASGSTFAAKSMGWYRQAPGKEREWVAVIRRGGSTTYADSVKGRFTISRDNAKNTVYLQMNSLKPEATAVYYCAASLYGKGDYWGQGTQVTVSS | high polyreactivity
18 | QVQLVESGGGLVQSGGSLRLSCAASGSNFITYAMGWYRQAPGKERELVAAIRDSGDRTYYADSVKGRFTISRDNAKNTVYLQMNSLKPEDTAVYYCNARWQEPLKYDYWGQGTQVTVSS | low polyreactivity
19 | QVQLVESGGGLVQAGGSLRLSCAASGRIFRYYAMGWYRQAPGKESELVAAINSGGSTKYADSVKGRFTISRDNAKNTVYLQMNSLKPEDTAVYYCNKDHAFSRYWYGGFDYWGQGTQVTVSS | high polyreactivity
20 | QVQLVESGGGLVQAGGSLRLSCAASGSTVGHYAMGWYRQAPGKERELVAAISVSGGSTYYADSVKGRFTISRDHAKNTVYLQMNSLKPEDTAVYYCAREYAHLSFLSTSSDYWGQGTQVTVSS | low polyreactivity
21 | QVQLVESGGGLVQAGGSLRLSCAASGSTLWTYAMGWYRQAPGKERELVAAISGGGGSTYYADSVKGRFTISRDNAKNTVYLQMNSLKPEDTAVYYCAAVTWVGWGQRRRDYWGHGTQVTVSS | high polyreactivity
22 | QVQLVESGGGLVHAGGSLRLSCAASGITFVYYAMGWYRQAPGKERELVAAIDDTGTTYYADSVKGRFTISRDNAKNTVYLQMNSLKPEDTAVYYCAADDWGWFFGGGDYWGQGTQVTVSS | high polyreactivity

Row | Sequence | polyreactivity (PSR sort gate)
23 | QVQLVESGGGLVQAGGSLRLSCAASGGTFSRNAMGWYRQAPGKERELVAAINTSGVSTSYADSVKGRFTISRDNAKNTVYLQMNSLKPEDTAVYYCAAETSSAEVDYWGQGTQVTVSS | low polyreactivity
24 | QVQLVESGGGLVQTGGILRLSCAASGRIFYYNAMGWYRQEPGKERDFFAAITSSSGSSTYYADSVKGRFTISLDNAKNTVYLQMNSLKPEVTAVYYCAAVGTFIIRYLSRSSYWGQGTQVTVSS | low polyreactivity
25 | QVQLVESGGGLVQAGGSLRLSCAASGRTFKYNAMGWYRQAPGKERELVAAISDRGTRKYYADSVKGRFTISRDNAKNSVYLQMNSLKPEDTAVYYCAARVTGKDRWYIYYWGQGTQVTVSS | high polyreactivity
26 | QVQLVESGGGLVQAGGSLRLSCAASGFTFPDNAMGWYRQAPGKERELVAAITTSGGRTYYADSVKGRFTISRDNAKNTVYLQMNSLKPEDTAVYYCARPSRRTGREYGYWGQGTQVTVSS | high polyreactivity
27 | QVQLVESGGGLVQAGGSLRLSCAASGLIFVAYAMGWYRQAPGKERELVAAISRNGGSTYYADSVKGRFTISRDNAKNTVYLQMNSLKPEDTAVYYCAARYAYYTARYTQVKGLDYWGQGTLVTVSS | high polyreactivity
28 | QVQLVESGGGLVQAGGSLRLSCAASGSTFEFNDMGWYIQAPGKERELVASIRHSDGSTYYADSVKGRFTISRDNAKNTVYLQMNSLKPEDTAVYYCNKAFQWSGGQVSYDYWGQATQVTVSS | low polyreactivity
29 | QVQLVESGGGLVQAGGSLRLSCSASGRTFSKYAMAWYRQAPGKERELVAAISKRGGSTSYADSVKGRFTISRDNAKNTVYLQMNSLKREDTAVYYCAATYTYVVPEYDYWGHGTQVTVSS | high polyreactivity
30 | QVQLVESGGGLVQAGGSLRLSCAASGFIFYTKAMGWSRQAPGKERELVATITTSGGRTYYADSVKGRFTISRDNAKNYVYLQMYSMKPEDTAFYYSATRYVVIEYDYWGQGTQVTVSS | low polyreactivity
31 | QVQLVESGGGLVQAGGSLRLSCAASGFIFLSYAKGWYRQAPGKERELVATITWSGGRTYYADSVKGRFTISRDNAKNTVYLQMNSLKPEDTAVYYCAKVNTYYNIYVTFDYWGQGTQVTVSS | low polyreactivity
32 | QVQLVESGGGLVQAGGSLRLSCAASGFTFYKNTMGWYRQAPGKERELVAAISYRGGTYYADSVKGRFTISRDNAKNTVYLQMNSLKPQDTAVYYCNARYRGKYSSYGYWGQGTQVTVSS | high polyreactivity
33 | QVQLVESGGGLVQAGGSLRLSCAASGFISPSYAMGWYRPAPGKERELVAAIRSSDGSTYYADSVKGRFTISRDNAKNTVYLQMNSLKPEDTAVYYCAAGGSYYRDDYWGQGTQVTVSS | low polyreactivity
34 | QVQLVESGGGLVQAGGSLRLSCAASGRIFVSNAMGWYRLAPGKERELVATISRSGGNTYYADSVKGRFTISRDNAKNTVYLQMNSLKPEYTAVYYSNSVSRRSYVKYDYWRQGTQVTVSS | high polyreactivity
35 | QVQLVESGGGLVQAGGSLRLSCAASGITFYDYAMGWYRQAPWKERELVAAISFSGSRTYYADSVKGRFTISRDNAKNTVYLQMNSLKPEDTAVYYCAASQARNYKIYDYWGQGTQVTVSS | high polyreactivity
36 | QVQLVESGGGLVQAGGSLRLSSAASGFTFYRNPMGWYRQAPGKERELVAAITRSGTSTYYADSVKGRFTISRDNAKNSVYLQKNSLKPEDTAVYYCNTVGYRGRSNSRFYYWGQGTQVTVSS | high polyreactivity
37 | QVQLVESGGGLVQAGGSLRLSCAASGSIFYNAMGWYRQAPGKERELVAAISYRGGRTYYADSVKGRFTISRDNAKNTVYLQMNSLKPEDTAVYYCAADSTVGRYPYDYWGPGTQVTVSS | high polyreactivity
38 | QVQLVESGGGLVQAGGSLRLSCAASGRTFGFYVMGWYRQAPGKERELVAAITPGGNTNYADSVKGRFTISRDNAKNSVYLQMNRLKPEDTAVYYCAASPGTIASYEGDFWGQGTQVTVSS | low polyreactivity
39 | QVQLVESGGGLVQAGGSLRLSCAASGSTSLYNMGWSRQAPGKERELVAAIDSGSTNYADSVKGRFTISRDNAKNTVYLQMNSLKPEDTAVYYCAADGTNIGVYDRASYRDDYWGQGTQVTVSS | low polyreactivity
40 | QVQLVESGGGLVQAGGSLRLSCAASGSIFYTNAMGWYRPAPGKERELVAAIRWSGGRTYYADSVKGRFTISRDNAKNTVYLQMNSLKPEDTAVYYCNVVVRYPSAYDYWGQGTQVTVSS | high polyreactivity
41 | QVQLVESGGGLVQAGGSLRLSCAASGLIFRWYAMGWSRQAPGKEWELVAAINYSGGRTYYADSVKGRFTISRDNAKNTVYLQMNSLKPEDTAVYYCAADGTYVWGSEEGNYWGQGTQVTVSS | low polyreactivity
42 | QVQLVESGGGLVQAGGSLRLSCAASGLTISTYAMGWYIQAPGKDRELVATITYSGSSTYADSVKGRFTISRDNAKNTVYLQMNSLKPEDTAVYYCAAFTYHGNPSEYYPDTVGFYYWGQGTQVSVSS | low polyreactivity
43 | QVQLVESGGGLVQAGGSLRLSCAASGRTFYRNAMGWYRQAPGKERELVAAITSSGASTYYADSVKGRFTISRDNAKNTVYLQMNSLKPEDTAVYYCAAKYVYSVGNYRYDYWGQGTQVTVSS | low polyreactivity
